In the DeepSol protein solubility set:

Test: soluble on expression in E. coli; label from the status in PepcDB or PDB records

Soluble on expression in E. coli, soluble:
SVLQVLHIPDERLRKVAKPVEEVNAEIQRIVDDMFETMYAEEGIGLAATQVDIHQRIIVIDVSENRDERLVLINPELLEKSGETGIEEGCLSIPEQRALVPRAEKVKIRALDRDGKPFELEADGLLAICIQHEMDHLVGKLFMDYLSPLKQQRIRQKVEKLDRLKARAPNSSSVDKLAAALEHHHHHH
MGSDKIHHHHHHMITTTIFPGRYVQGAGAINILEEELSRFGERAFVVIDDFVDKNVLGENFFSSFTKVRVNKQIFGGECSDEEIERLSGLVEEETDVVVGIGGGKTLDTAKAVAYKLKKPVVIVPTIASTDAPCSALSVIYTPNGEFKRYLFLPRNPDVVLVDTEIVAKAPARFLVAGMGDALATWFEAESCKQKYAPNMTGRLGSMTAYALARLCYETLLEYGVLAKRSVEEKSVTPALEKIVEANTLLSGLGFESGGLAAAHAIHNGLTVLENTHKYLHGEKVAIGVLASLFLTDKPRKMIEEVYSFCEEVGLPTTLAEIGLDGVSDEDLMKVAEKACDKNETIHNEPQPVTSKDVFFALKAADRYGRMRKNLT

Soluble on expression in E. coli, not soluble:
MGSDKIHHHHHHMKRKINYTHIAEPTVFENVFPTYLTNETMMARKQKVLQRMETEKFDQLVFYADKEHGSNFEYLTGFIPRFEEGLLVLNKDGAATLILGNENLKLCQHARISADLIHYLAFSLPNQPMAGEQKLSQIFETLLDETAQKIGIVGWKMFTTQQQEPATMFDVPHFIVEALKKALPKEARLLNGTHLLIGAKGARATNNANELAHYEYGANLASRSMLKALNAIEIGQRETDIGALLNDEGQTPTVVTIAATGQRFEYANMYPTAKEIQLGDALSLTTGYKGGLSSRTGFVIENEQQLPEAQRDYLERVAKPYFQAVVHWLETIRIGLLGREMYQAIEEQLPKEIYHWHLNPGHLVSDDEWMSSPIYPDSAIRLESGMLFQVDIIPSVPGYTGVSAEECVALADETLQKEIQQTYPDMWQRIATRKAYLKETLKLDLPSEVLPMSNLVGYLRPFYLAKDKALCVEKPALK
MNYHQYYPVDVVNGPGTRCSLFVAGCVHECVGCYNKSTWRLNSGQPFTQEQEDRIIADLQDKLIPRQGISLSGGDPLHPQNVPDILRLVERIRAECPGKDIWVWTGYVLADITREQQRVVDLINVLVDGKFVQDLKDPALIWRGSSNQVVHRLRLEHHHHHH
MLFNLLGKPLKICGCSPRTGWYLDGYCKTDQSDLGNHSICSVVTDTFLKYTKSQGNNLIDPNLLMEFPGLKAGDHWCLCAERWEQARIDGVAPPIIIESTNLSATQVIPLNILKSFAFEII
PDLLIELFSEEIPARMQARAREDLKKLVTDGLVEAGLTYASAGAFSTPRRLVLSVEGLSAESPTLREERKGPKADAPAAAIEGFLRSTGLTRDQLETREDKKGAVLFAVVEKPGRRAPDIVAEVLERTIRTFPWPKSMRWGTGSLRWVRPLHSILCLLSDEAGSQVVPVTVDQVTAVNTTEGHRFMAPGRFAVTGFDDYRAKLQRALVMLDAAEREQAIWHEATTQAFAQGLEVVPDAGLLAEVAGLVEWPVVLMGPIGEEFLGLPPEVLQTSMREHQKFFSVRNPATGRIEKFVTVANRETADHGATILKGNAKVLSARLSDASFFWENDRRTVQTVGLEGMAAGLAHVTFHNKLGSQADRIARIEALAREIAPLVGASPDLAAEAARVAKADLQSAMVGEFPELQGTMGSYYARAAGLPEPVALACKAHYQPLGPSDAVPTDPVSVAVALADKIDTLTGFWAIDEKPTGSKDPFALRRAALGVVRLLLMNGLRLSLLNQVRFAHGCLAEQFNSRFNFFVQIREEPKEAVNIGVGHRYPEVVSDQCTSILMGYVENPVESVASGKFTIDGRAVGTKP
MAHHHHHHMPQRSHVPLASPSPLNAPPPLTSRPGPVNYCGAHAEPAAGLNYTHHDDHRSVFRDQASCDPSPSQRALHQQQVHRPRAVSPGPHDGSAPHVSALVARGAVIRADELETILDEQNYIWQMEEYRFRTERQKRLTALQHRQHELMLESARYDQAVAEVERQLARERQRLEELRQMMARNATTSCSPIDREHGLQDPPTAMSDAPHVIARNSSAMHHGQARDHAYSAPHDAPYFPTGASDGLSAMNEEEVIAEV
MSDGQYGPISAGIIRSITDKSYERRKAAALDVEKLVRDLFNNNQLSQLDKCLSVLGELINSGNSNQRKGGLIGMAAASIALGNKNAPPYTAKLVEPIIPCFHDADLQIRYYACESLYNIAKICKTSVLAHFEDIFDVLWRVTADSDQNVRGGAELLNRLITEIVLSEQEFDIAILMSLIRDRIYTQTSSNRRFILEWLNTIDSAPFFSFCNYISEISDGLFKMLGEQAPAVRDLCETVLGNFLTAIRSKPESLSLEDRIQMINVLVVHTHENEPFLARKLSLIWLEEFVKLYKTDLLVMLSTCLVGILPSIVETELKADAVNRLLMALVGEAKLEQDILDKTIEVLLKYIKYDVVETRVTVLNWIRHLHSSMPGQLFVHMHQIFPVLLNTLSDTSDEVLLLDLFLISNICQSESAPDQVDVSTFGLNETELKQVSHISPFLIKFVLSLLEMFRTEPTLLRERGVLIIRQLCLLLEPAHIYRVICVLLERESKHNFAQEMVSTLHGVLLTATELFILRDELRALSNESSRSLFECIFRVWSNRPIALLGLCLLSQHYQQAADIALLLSQVDITVDVLLEIDKLVNLVESPVLAYVRMDLLSSIHRPPLCTVLSALLMLLPQSEAFVTLHKRLQAVPALVSIDNSPYAPKVPPCRIDFPPLMLHFKAALARRQTEVRSRHRDLLSGVVTQMKNVKI
MGSDKIHHHHHHMSKFINPFTDYGFKLIFGREVSKDLLIEFLNDLLEGERVITDLTFLNNEQLPDYPEGRGIIYDVYCTTDTGEKIIVEMQNRMQSNFKERSIFYLSRAIVNQGRTGHDWKFEIKAVYGVFLMNFIMDKNIKLRTDVILADKETGELFSEKFRQIFIALPLFKKSEEECETNFERWIYILNNMETLKRLPFKARKAVFEKLEEIADVASMSPKERELYDNSVKVYRDYLVTMDAAEKEGIKKGMKEGMKEGLKKGLEEGLEEGLKKGREEALNIFQTAIDMKKQGIDNQLIAEKTGLPLSLIESLK
MQSIGQVLTKASERLEERLAAVLAQYTPAYFRERIPELNELDATDEMIQKAIIQLMDRAKQIEECRGCTGFANCRRPPGQEGMVMHLTVENGHISSLHSMCDQFHAYHQEQRWQRLLALSGKAANDKNFTFDNFPDAQKKRHRKLCGYIYQFAQQFEPGGSDKGVYIYGPPGTGKTHLLLAMVNRLEERRVPVIFIRTDAIFRRMRGMLSAKESLDSLIEAYCTTPVLVIDEFAQEAGTEFTIDVMFEVVNARFANSLPTFATSNYAPDQVYEKAMRKHRLEEKVEAIRSRLNQMMKHAFMDGEDGRKKDRETF
MGSDKIHHHHHHMSNQHSWALSMNQIENCSCSHGCGCQFGGFPTSKDGGCEAILGFEILKGHFNDLDLSGLKMVFAAAWPSAMHEGNGKGALFIDNSANEEQVGALATIMSGQAGGMPVEVLGTLFSEFDGPIMADIKLNRQDYTSTVTIEGIIEVEQEPHINPVTGEINEVHISFPKGGFMWNDGFAGKTKLMKINHGNMAFSYSDTFAANAVVNWPNA
IEAENHKVTDKIKNAQPFLVDVVPAKSVIPELNDDAQKTLLHAGPPIQWSEMTGPMKGACIGAALFERWADNEEDALKIFEAGEVRFIPCHHVKAVGPMGGITSGNMPVFVVENRLEGNEAYCILNEGIGKVLRFGAYSQEVVDRLDWIKDVLGPTIAKALKLSEEGLNLNVLIARSITMGDEFHQRNIAASLNFLKELSPLIIKTDIPEDQKYEVIKFLADTDQFFLNVMMATGKAIVDGARKDTNGTIVTTMTRNGVNFGVRIAETGDQWHTAPVNTPKGLYFTGFSEEDGNPDVGDSAITETVGVGAMAMVAAPGVTRFVGAGGFEDALATSNEMAKICEGNNPTFSIPTWDFQGTCLGIDIRKVVELGITPIINTGIAHKNAGVGQIGAGTVRAPLGCFEKALEAYAEKLGITVE
MKNVIACISSPRRVQSICDYAIWAVRRLGSELELLHVVEREQDAVPIADLSGGIWMGTQETLLKELAELDERRQQLAQEQGRQLLQAATERAREAGIQGLAGLARQGYLVDVLLELEDDARLFVMGQHDRPTKPSRLLPDQHLEAAVRALHRPVLVAG
